Laboratory results reported in the DeepSol protein solubility set.

assay: soluble on expression in E. coli; label from the status in PepcDB or PDB records

| Sequence | soluble on expression in E. coli |
| --- | --- |
| MKKAKLGKSDLQVFPIGLGTNAVGGHNLYPNLNEETGKELVREAIRNGVTMLDTAYIYGIGRSEELIGEVLREFNREDVVIATKAAHRKQGNDFVFDNSPDFLKKSVDESLKRLNTDYIDLFYIHFPDEHTPKDEAVNALNEMKKAGKIRSIGVSNFSLEQLKEANKDGLVDVLQGEYNLLNREAEKTFFPYTKEHNISFIPYFPLVSGLLAGKYTEDTTFPEGDLRNEQEHFKGERFKENIRKVNKLAPIAEKHNVDIPHIVLAWYLARPEIDILIPGAKRADQLIDNIKTADVTLSQEDISFIDKLFAPG | soluble |
| MKKAVVVFSGGQDSTTCLVQALKEFDEVHAITFDYGQRHKLEIEVAQQLAKQLGVTAHKVMDVSLLNELAISSLTRDDIPVSHELQANGLPNSFVPGRNILFLTLAGIYAYQIGATTVITGVCETDFSGYPDCRDEFVQAMNQALAKGMDLPLMIRTPLMWLNKAETWALADQLGALDLVRHQTLTCYNGLIGDGCGECPACGLRQAGLKAYLDNRDLIMSALKSKQSAAH | not soluble |
| MKKAYLVWGMAALLSLGVAQQAGGLTLEGVEALRQEARKAYPVGFVDLAPWKRALEAAEALAKQNPNDLRALRLLAEIYTETQWAIRAWEAWMNYREKGGTWDEAARQAAAKVARTLAFYANQRGDRAEAERWAAQAQAVEAGQ | soluble |
| MKKCRICGKKAIIYMPHHRLALCREHFVEWFEKYTERTIKEFKMFTKKDKVLVAISGGKDSLALWHVLRKLGYEADGLYINLGIGEYSEKSKEKVLKFAEKINGKAIIVDLKEELAGIPELVKITSREACSVCGLVKRYNFNKVAKEHGYNVIATGHNLDDEASALLANVLNWNEKYLGRKYPVLEEEAGFVRKVKPFCKFTEKETALYALLNGIDFIEEECPFSEDATSVFYKKILNEIEERSPGTKLRFYLDYLRKIYPKFRKEEEKKELQPCKVCGEPTVGEICPVCRLREKVEASSG | soluble |
| MKKFSSLFRSFMHFQLTLVKPLTRRSRPIELGRLNCTEPVSSNFGFERGRPIDRYYINIFLSQNTNDVRGRVLEISDNGYTKRLGGKKVKQSDVLHAVEGNPKATIVSDITKADNIPSDSFDCIILTQTLQFIYDTKSAVRHLHRILKPNGVLLATMSGISQISRYDMDHWGEYWRFTTASAKQLFEEEFLPENIEVKAYGNVLSSTAFLYGLAVEDLKTEQLDYHDPNYQMLVTVRAVKADKQLEHHHHHH | not soluble |
| MKKIALTLAATSITLVSYSAFSAQDAEHVRLATTTSTYHSGLLDYLLPQFEKDTGYKVDVIAAGTGKALKMGENGDVDLVMTHAPKAEGTFVEKGYGVLPRKLMYNDFVIVGPKADPAKIKDDESVLDVFKEIANKNATFISRGDDSGTHKKEMGFWAQTKIEPNFGGYRSVGQGMGPTLNMASEMQGYTMSDRGTWLAYQNKLDLEILFQGDEKLFNPYQVILVNPERYPTINYQGAKAFSDWLVNPRGQELINGFRLNGKQLFVANAESK | not soluble |
| MKKIATATIATAGIATFAFAHHDAQAAEQNNDGYNPNDPYSYSYTYTIDAEGNYHYTWKGNWSPDRVNTSYNYNNYNNYNYYGYNNYSNYNNYSNYNNYNNYQSNNTQSQRTTQPTGGLGASYSTSSSNVHVTTTSAPSSNGVSLSNARSASGNLYTSGQCTYYVFDRVGGKIGSTWGNANNWANAAARSGYTVNNSPAKGAILQTSQGAYGHVAYVEGVNSNGSIRVSEMNYGHGAGVVTSRTISASQAASYNYIHLEHHHHHH | not soluble |
| MKKIKALALFSGGLDSLLSMKLLIDQGIEVTALHFNIGFGGNKDKREYFENATAQIGAKLLVCDIREQFFNDVLFKPKYGYGKYFNPCIDCHANMFRNAFYKMLELNADFVLSGEVLGQRPKSQRKEALNQVRKLVREVGEEARFDPVLDRTQAGGKKPQFLDELLLRPMSAKLLEPTFMEKKGFVDREKLLDVSGRGRSRQLQMIKDYGLKYYEKPGGGCLLTDIQVSNKIKNLKEYREMVFEDSVIVKNGRYFVLPHNARLVVARNEEENHKLDIQHPLMDKIELLNCKGPLSLVDKNASKEDKELAGRIALGYAKTLKNQAYLIQIGDEKRELYPLDKENAREYLFALEHHHHHH | soluble |
| MKKILFICLGNICRSPMAEFIMKDLVKKANLEKEFFINSAGTSGEHDGEGMHYGTKNKLAQLNIEHKNFTSKKLTQKLCDESDFLITMDNSNFKNVLKNFTNTQNKVLKITDFSPSLNYDEVPDPWYSGNFDETYKILSLACKNLLVFLSKHHHHH | soluble |
| MKKILIVDDEKPISDIIKFNMTKEGYEVVTAFNGREALEQFEAEQPDIIILDLMLPEIDGLEVAKTIRKTSSVPILMLSAKDSEFDKVIGLELGADDYVTKPFSNRELQARVKALLRRSQ | soluble |
| MKKIYKVLYPVGFQIFEVQDDYVVALPFVEEKPLENLVNEQSQFFNFSEQKWEEAVTQDYTKKLNLLENLANGLEVSNSELKQANEKLTAKAESLAQINSKTMLTSLQNTREIDAIKEQIGGAK | not soluble |
| MKKLAVKALLFIMGTMLYSAPTYEYRRELREGARGKWTNLRQHLNSGTRLEKELTKVDKQIDKKVNEIQEIEDLLFRIEQYKAANNIR | not soluble |
| MKKLIIIPAYNESSNIVNTIRTIESDAPDFDYIIIDDCSTDNTLAICQKQGFNVISLPINLGIGGAVQTGYRYAQRCGYDVAVQVDGDGQHNPCYLEKMVEVLVQSSVNMVIGSRFITKEGFQSSFARRIGIKYFTWLIALLTGKKITDATSGLRLIDRSLIERFANHYPDDYPEPETVVDVLVSHFKVKEIPVVMNERQGGVSSISLTKSVYYMIKVTLAILVVRLKGNR | not soluble |
| MKKLVTATTLTAGIGAAIVGLDHGNEADAAEQTQPTNQSTTQSTSGSSANLYTAGQCTWYVYDKVGGNIGSTWGNANNWASAASSAGYTVNNSPEAGSILQSTAGGYGHVAYVENVNSDGSVEVSEMNYNGGPFSVSERTISAGEASSYNYIHLNLEHHHHHH | soluble |
| MKKQPGQQPLRSLSLTSAAKSLEEVEPEDDSKKGEPHAKAAGFGRGGGGGKRLPAARSTPMVIPNQVAAMPVQMTGFVQLATNNILSAIAHTNSLMVVQCIEPLEIFTGFETPNRYVVHDMYCRPLLYCMERSNVFARQYHGNNRKLSASTLDSCRRCSPMRTLTLFTFQWTCRQS | soluble |
| MKKRLLLSTFLASTLILTGCASDQSDNEDHHTSTGIHAPKSAKKLETKDIFNSDKKNSDISDAEMKQAIEKYLSVNSDILDNKYIMQHKLDKQIDSQTKVTEKQAETLSHLSNLAVKNDLHFKKFVTENNIPKEYKKPVELMMNYFKALNSTIANVDEDIEKLSYQPQNKINVVDVPTKYAGDVNKKQQDKIKDFLKSKGIKSDVIDK | not soluble |
| MKKRNSMKLASLTVLLAGTTLFTPGFTVKAESTQSISNSSKVHDQKNRNGWKQVMQETIKIGAPGVLAKTSNKGKISSYTAGVADLSTKKPVKSDYRFRIGSVTKTFTATTVLQLVGENRVQLDDSIEKWLPGLIQGNGYDGNQITIRQLLNHTSGIAEYLKSKDADIMNSKKTYTAEEIVKIGLALPSDFSPGKGWSYSNTGYVILGMLIEKITGNSYAEEIEKRIIEPLDLPNTFLPGNSPVIPGKNHARGYVKMEETGELKDITYYNPSLANAAGDMISNADDLNKFFSSLLGGKLLKERELKEMLTTVPIEGKGIGDGYGLGIYETKLPNGVSVWGHGGSIPGFMTFAGGVIGGKHTFAVNVNSLGPVDILTQFDKMMQVEFNK | not soluble |
| MKKTLALAATAAVLMLSACSSGFGGEKEEEITQKTAKSSEKAIVPKYNISDSYYKMVLPFKAGKARGLTTEQLNTRLDIDEFETGLMRLAQDSFSTDDYLFQEGQYLDEDTVLSWLARKKTGSDLKKAEKEDKNFKNEGLNPALPSSGSTEEKNESSPIYLASMLEHDYLVRKDKNSIQLGGVMIGLALNSVYYYREKTGDPQKEVEIKDSTLRQQGEKIAQEVINRLRKKDNLKNVPITVALYKQASKTSIVPGNFIAKTEVKAGSTDISNWDDINEKYVFYPADTTTAEKYPDDTEVFKRFKNSIEEYFPNYTGVVGTALYENDEMKKMKIDIPMQFYGKSEVVAFTQFLTGEVMDYYSKSSVDVEVNITSSDGQEAVIIRNAGDKEPTVHIYD | not soluble |
| MKKTRTANLHHLYHEALPEDVKLTPRVEVDNVHQRRTTDVYEHALTITAWQQIYDQLHPGKFHGEFTEILLDEIQVFREYTGLALRQSCLVWPNSFWFGIPATRGEQGFIGAQGLGSAEIATRPGGTEFELSTPDDYTILGVVISEDVISRQATFLHNPERVLHMLRNQLALEVKEQHKAALWGFVQQALATFSESPETLHQPAVRKVLSDNLLLAMGTMLEEAKPIHSAESISHQGYRRLLSRAREYVLENMSEPLTVLDLCNQLHVSRRTLQNAFHAILGIGPNAWLKRIRLNAVRRELISPWSQSATVKDAAMQWGFWHLGQFATDYQQLFAEKPSLTLHQRMRQWA | not soluble |
| MKKVIAGLAAASVAGVAVPGMDSAHAQVSNEALKEINGQTQTQTQTQTTVTETKTVETTSELKYTVTADVLNVRSGAGTGHNVISKVKSGQVLQVVGQENGWFKVNVNGQTGYVSGDFVTTGGKTGTTVQQGTGTYTVNVSSLNVRTGPSTSHTVLGSVNKGKTVQVVGEVQDWFKINFNGGTGYVSKDFVTKGGSAVSNETQQPTTNNNTTTVQTGGSYVVNTGALKVRTGPATYNAVIGGVTNGKVLNVTGAENGWYKINHNGRTGYVSADFVKFVKGGVNNVTNNNNVTNNVQQPGKDVQKPTTGGDTSSIAGFARSLNGSPYRTAGTTPAGFDCSGFIHYVLNQTGHKGARQTVAGYWSSKTKTSNPQPGDLVYFQNTYKSGPSHMGVYLGNGQFISAETDATGVRISSVSNSYWSKHLLGYTKAYLEHHHHHH | soluble |
| MKKVLIAALIAGFSLSATAAQTIRFATEASYPPFESMDANNKIVGFDVDLANALCKEIDASCTFTNQAFDSLIPSLKFRRFDAVMAGMDITPEREKQVLFTTPYYDNSALFVGQQGKYTSVDQLKGKKVGVQNGTTHQKFIMDKHPEITTVPYDSYQNAKLDLQNGRIDAVFGDTAVVTEWLKANPKLAPVGDKVTDKDYFGTGLGIAVRQGNTELQQKFNTALEKVKKDGTYETIYNKWFQK | not soluble |
| MKKVLILSTSTGYGHNQAANSLMELIKNDDTEILVHDFLKENRFFDRSIVNGYDLCASSLGTLYGLLYKISNIKFINNLVSFLFLPVANKLAKFIHSFNPDLIITTHPLAVSILSYLKKRQIIKVPVISVVTDFKCHYTYVSKIIDHYIVACDFTKENLASKGIPKERISPFGIPVKQDFYKEDYHNYVENIIQSPLNILLMGGGMGLDNISKVLKTLIKNENPLNLTIVCGNNAELKEDLCKEYGHIKGNKKLNILGYTTEIPKIMKSSDLIITKPGGLTTTESLLSHLPMIIPFIIPGQESENREFLSKSNCAITINHLEELNKVINDLNKDNNKLINMRKSILDVLSSYSPEGTIKLCTKMLNDSYNKRRYLEHHHHHH | soluble |
| MKKVLIVLLVLLTSFGFSENLDKYESKRVFDKSIQFILDGNYEKLKNDTEMSRVAGNITDAAEAIFAKARPMLKEHKYKVIDVKEKKDISELTVKVEYKVYENVSQEESENFMIKFQEELDEETEEAADIYDKKVQKLLQDNIKSKGIIKDKIIKVYMDKEYGYWDLATDKNEDLLLTLFSVIDSLGLY | not soluble |
| MKKYSILLLPFILASCAPVSESQFTEQRLSELEIKVAKLEERQEKIEEQLEEINKRLDYITKSIAKREIKSYKEPEEEKPPFEEVKSTEDEKAEYENALELYKMKQLNEARDAFVEFIKKYPNSKYTDNAYFWLGKTFYELGNTERAKQIFNVLIKKCKSGELPDCNKLPDTYFMLVKISLDEGNIEEANRYLSILEEKFPDAEATQRAKELIYKTP | not soluble |
